Measurements: publication PMC5577655

System: NCCCC[C@H](N)C(=O)O
Assay: purified protein

## lysyl-tRNA synthetase 1 (LdLysRS-1) (Leishmania donovani)
  Km: 111 ± 15 µM
